Results reported in publication PMC5441900.

Columns and labels:
[1] = target: VI (vacuolar invertase) extracted from mature soybean leaves (Glycine max (endogenous in mature leaves))
[2] = target: CWI (cell wall invertase) extracted from mature soybean leaves (Glycine max (endogenous in mature leaves))

Row | Substance | inhibition of VI activity (glucose released from sucrose) of a leaf soluble fraction after 30 min at 37 °C with recombinant GmCIF1; maximum at about 50 ng, no further effect at 100 ng and 1000 ng [1] [%] | inhibition of CWI activity (glucose released from sucrose) of a leaf cell-wall preparation after 30 min at 37 °C with recombinant GmC/VIF2; maximum at about 100 ng [2] [%] | inhibition of VI activity (glucose released from sucrose) of a leaf soluble fraction after 30 min at 37 °C with recombinant GmC/VIF2; maximum at about 100 ng [1] [%]
1 | recombinant GmCIF1 (natural protein) | 70 | – | –
2 | recombinant GmC/VIF2 (natural protein) | – | 80 | 75
